# Experimental data as given in PMC4022893, “Evidence for Follicle-stimulating Hormone Receptor as a Functional Trimer*” (The Journal of Biological Chemistry, 2014).
# T1: human follicle-stimulating hormone receptor on CHO-DUKX cell membranes (human, UniProt P23945 18-695)
# T1 construct: follicle-stimulating hormone receptor, human, expressed in CHO-DUKX cells; Used as isolated membranes, not live cells; also called FSHR; hFSHR; source: CHO-DUKX cells expressing the human FSH receptor, membrane preparation (nitrogen cavitation, 100,000 x g pellet)
# T1 sequence (looked up): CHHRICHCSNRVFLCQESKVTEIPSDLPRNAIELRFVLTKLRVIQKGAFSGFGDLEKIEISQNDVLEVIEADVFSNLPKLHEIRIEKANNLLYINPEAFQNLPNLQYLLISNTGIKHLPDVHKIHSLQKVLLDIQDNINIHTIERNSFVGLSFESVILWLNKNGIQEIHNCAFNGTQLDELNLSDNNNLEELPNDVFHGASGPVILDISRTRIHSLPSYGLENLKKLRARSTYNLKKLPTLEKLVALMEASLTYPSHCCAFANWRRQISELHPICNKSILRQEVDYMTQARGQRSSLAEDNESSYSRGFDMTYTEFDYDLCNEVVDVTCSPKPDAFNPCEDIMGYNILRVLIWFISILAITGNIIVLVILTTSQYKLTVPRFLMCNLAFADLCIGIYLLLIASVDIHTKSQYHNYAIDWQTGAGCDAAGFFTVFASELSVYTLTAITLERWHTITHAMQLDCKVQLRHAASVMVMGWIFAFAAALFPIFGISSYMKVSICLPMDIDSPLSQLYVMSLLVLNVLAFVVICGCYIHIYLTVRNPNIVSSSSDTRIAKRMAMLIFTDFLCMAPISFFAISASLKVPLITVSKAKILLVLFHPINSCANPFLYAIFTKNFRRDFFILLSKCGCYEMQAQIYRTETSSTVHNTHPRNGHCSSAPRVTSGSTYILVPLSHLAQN
# What was measured:
# [1] = target: T1, human follicle-stimulating hormone …; test: radioligand binding; 5 μg CHO-FSHR membrane with increasing concentrations of 125I-ligand; 10 mM Tris pH 7.4, 5 mM MgCl2, 0.2% BSA; 90 min at 37 °C; filtration; nonspecific binding with 500-fold excess of FSH; no Compound 5; details: one partner purified
# [2] = target: T1, human follicle-stimulating hormone …; test: as above; details: one partner purified; remark: listed apart in the source
# [3] = target: the molecule itself; test: crystal structure; FSH-FSHRED complex at 10 mg/ml, 20 °C, hanging drops, 0.1 M imidazole pH 8.0, 20% Jeffamine M-600; space group P3_(1)
Binder,Kd [1] [nM],receptor binding ratio of the N52D mutant to fully glycosylated FSH [2],stoichiometry N [3]
"125I-N52D-FSH (FSH with Asn52 of the alpha-subunit mutated to aspartate) (ligand, no glycan at position 52; 125I label (chain not stated), glycoprotein hormones alpha chain (FSH alpha-subunit), human; Heterodimer; the other three glycosylation sites are unchanged; also called αN52D-FSH mutant; mutant-N52D; source: recombinant, prepared using the same protocols as the fully glycosylated FSH; 125I-labelled (PerkinElmer Life Sciences)) chain 1: not shown chain 2: NSCELTNITIAIEKEECRFCISINTTWCAGYCYTRDLVYKDPARPKIQKTCTFKELVYETVRVPGCAHHADSLYTYPVATQCHCGKCDSDSTDCTVRGLGPSYCSFGEMKE",0.4,~3,–
"full ectodomain of human FSHR (FSHRED, Ser16-Arg366) (domain or fragment, UniProt P23945 16-366, looked up, follicle-stimulating hormone receptor, human, full ectodomain, residues Ser16-Arg366; Three copies form a trimer in the crystal; also called FSHED; FSHR extracellular domain) SGCHHRICHCSNRVFLCQESKVTEIPSDLPRNAIELRFVLTKLRVIQKGAFSGFGDLEKIEISQNDVLEVIEADVFSNLPKLHEIRIEKANNLLYINPEAFQNLPNLQYLLISNTGIKHLPDVHKIHSLQKVLLDIQDNINIHTIERNSFVGLSFESVILWLNKNGIQEIHNCAFNGTQLDELNLSDNNNLEELPNDVFHGASGPVILDISRTRIHSLPSYGLENLKKLRARSTYNLKKLPTLEKLVALMEASLTYPSHCCAFANWRRQISELHPICNKSILRQEVDYMTQARGQRSSLAEDNESSYSRGFDMTYTEFDYDLCNEVVDVTCSPKPDAFNPCEDIMGYNILR",–,–,3
